1 molecule from patent publication US20120128626A1 (ALDERBIO, published 2012) can be followed below.

What all share (assay): cell-based or functional assay
One assay has as its target T1, Rat IL-6 (rat, UniProt P20607 25-211).
T1 sequence (looked up): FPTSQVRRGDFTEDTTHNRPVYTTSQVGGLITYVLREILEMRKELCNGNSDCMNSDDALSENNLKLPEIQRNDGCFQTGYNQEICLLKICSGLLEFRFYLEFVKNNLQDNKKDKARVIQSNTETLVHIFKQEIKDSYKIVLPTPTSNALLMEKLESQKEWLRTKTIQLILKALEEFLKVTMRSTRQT

The target of the next assay is T2, Cynomolgus monkey IL-6 (cynomolgus monkey, UniProt P79341 28-212, limits assumed).
T2 sequence (looked up): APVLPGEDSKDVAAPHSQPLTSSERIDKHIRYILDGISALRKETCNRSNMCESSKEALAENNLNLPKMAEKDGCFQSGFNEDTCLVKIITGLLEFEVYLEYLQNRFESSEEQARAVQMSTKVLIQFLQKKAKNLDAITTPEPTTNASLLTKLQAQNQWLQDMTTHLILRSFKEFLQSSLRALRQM

In another assay the target is Human IL-6 (human, UniProt P05231 30-212).
The next assay has as its target T3, Mouse IL-6 (mouse, UniProt P08505 25-211).
T3 sequence (looked up): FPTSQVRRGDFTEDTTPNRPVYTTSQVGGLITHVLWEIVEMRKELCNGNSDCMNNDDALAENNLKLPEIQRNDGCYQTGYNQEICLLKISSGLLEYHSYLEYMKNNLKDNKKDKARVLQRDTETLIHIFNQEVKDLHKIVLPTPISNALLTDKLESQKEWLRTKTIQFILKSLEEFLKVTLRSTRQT

B1: Ab1 (antibody, human IgG1, kappa, N297A, V domains shown)
VH: EVQLVESGGGLVQPGGSLRLSCAASGFSLSNYYVTWVRQAPGKGLEWVGIIYGSDETAYATSAIGRFTISRDNSKNTLYLQMNSLRAEDTAVYYCARDDSSDWDAKFNLWGQGTLVTVSS
VL: AIQMTQSPSSLSASVGDRVTITCQASQSINNELSWYQQKPGKAPKLLIYRASTLASGVPSRFSGSGSGTDFTLTISSLQPDDFATYYCQQGYSLRNIDNAFGGGTKVEIKR
For B1, the “IC50, inhibition of IL-6-stimulated T1165 cell proliferation” value was 2.06 nM in the assay with Rat IL-6, 0.012 nM with Cynomolgus monkey IL-6, 0.013 nM with Human IL-6 and 1.84 nM with Mouse IL-6.
